Test results taken from patent US20130131319A1 (Chugai, published 2013).

Legend:
[1] = target: T1, soluble human plexin A1 (hsPlexin A1) (human, UniProt Q9UIW2 27-1243); experiment: Biacore, antibody on protein A/G, hsPlexin A1 analyte, 37C, pH 6.0
T1 construct: range 27-1243
Description: (§1) Assay was carried out using 10 mmol/l ACES/150 mmol/l NaCl containing 0.05% Surfactant P20 (pH 7.4 and pH 6.0) as a running buffer. […] Assays were carried out at 37 degrees C. The assay results were analyzed using Biacore T100 Evaluation Software (GE Healthcare), and the association rate constant, ka (1/Ms), and the dissociation rate constant, kd (1/s), were calculated from the assay results. Then the KD (M) was calculated from ka and kd (Table 15). Furthermore, the pH-dependent binding was evaluated to calculate the KD ratio between pH 7.4 and pH 6.0 for each antibody.

[2] = target: T1, soluble human plexin A1 (hsPlexin A1); experiment: Biacore, antibody on protein A/G, hsPlexin A1 analyte, 37C, pH 7.4
Description: as §1

human IL-6 (TORAY) [3] = target: T2, human IL-6 (TORAY) (human, UniProt P05231 30-212, limits assumed); experiment: Biacore, antibody on protein A/G, IL-6 analyte, 37C, pH 5.5
T2 construct: also called hIL-6
Description: (§2) Assay was carried out using 10 mmol/l ACES/150 mmol/l NaCl containing 0.05% Surfactant P20 (pH 7.4 and pH 6.0) as a running buffer. After antibodies were bound to recombinant proteinA/G (Thermo Scientific) immobilized on sensor chips using an amino-coupling method, appropriate concentrations of human IL-6 (TORAY) as an analyte were injected. Assays were carried out at 37 degrees C. The assay results were analyzed using Biacore T100 Evaluation Software (GE Healthcare), and the association rate constant, ka (1/Ms), and the dissociation rate constant, kd (1/s), were calculated from the assay results. […] Furthermore, the pH-dependent binding was evaluated to calculate the KD ratio between pH 7.4 and pH 6.0 for each antibody.

human IL-6 (TORAY) [4] = target: T2, human IL-6 (TORAY); experiment: Biacore, antibody on protein A/G, IL-6 analyte, 37C, pH 7.4
Description: as §2

[5] = target: T3, soluble human FcRn (complex of FcRn and beta2-microglobulin) (human, UniProt P55899 24-297; P61769 21-119); experiment: Biacore steady-state, antibody immobilized, pH 6.0, 25C
T3 construct: Secreted from HEK293H
T3 sequence (P55899 24-297 limits assumed, chain 1 of 2): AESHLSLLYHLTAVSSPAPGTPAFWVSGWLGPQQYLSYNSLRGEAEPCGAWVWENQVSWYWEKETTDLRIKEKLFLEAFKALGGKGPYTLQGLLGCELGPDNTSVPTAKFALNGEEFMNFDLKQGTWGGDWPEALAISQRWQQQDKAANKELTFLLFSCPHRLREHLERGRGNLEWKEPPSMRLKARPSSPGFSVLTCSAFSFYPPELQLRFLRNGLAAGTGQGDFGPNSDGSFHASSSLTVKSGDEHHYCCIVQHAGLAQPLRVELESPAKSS
T3 sequence (P61769 21-119 limits assumed, chain 2 of 2): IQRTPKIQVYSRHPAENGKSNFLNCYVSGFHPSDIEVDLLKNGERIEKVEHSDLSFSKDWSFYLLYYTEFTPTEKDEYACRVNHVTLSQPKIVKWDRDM
Description: The antibodies were tested as a test substance after direct immobilization onto Series S Sensor Chip CM5. Using an amino-coupling kit according to the supplier's instruction manual, the antibodies were immobilized onto Sensor Chip so as to secure an immobilization amount of 500 RU. The running buffer used was 50 mmol/l Na-phosphate/150 mmol/l NaCl containing 0.05% (v/v %) Surfactant P20 (pH 6.0).
With the prepared sensor chips, assay was carried out using as a running buffer, 50 mmol/l Na-phosphate/150 mmol/l NaCl containing 0.05% Surfactant P20 (pH 6.0) or 50 mmol/l Na-phosphate/150 mmol/l NaCl containing 0.05% Surfactant P20 (pH 7.4). Assays were carried out exclusively at 25 degrees C. The diluted human FcRn solutions and running buffer as a reference solution were injected at a flow rate of 5 microliter/min for ten minutes to allow for human FcRn to interact with the antibody on the chip. Next, the running buffer was injected at a flow rate of 5 microliter/min for one minute to monitor the dissociation of FcRn. […]
The assay results were analyzed using Biacore T100 Evaluation Software (Ver. 2.0.1). By a steady-state affinity method, the dissociation constant (KD) was calculated from the assay results at six different FcRn concentrations.

[6] = target: T3, soluble human FcRn (complex of FcRn and …); experiment: Biacore pH 7.0
Description: (§3) The binding between antibody and human FcRn was kinetically analyzed using Biacore T100 (GE Healthcare). […] An appropriate amount of protein L (ACTIGEN) was immobilized onto Sensor chip CM4 (GE Healthcare) by the amino coupling method, and the chip was allowed to capture an antibody of interest. Then, diluted FcRn solutions and running buffer (as a reference solution) were injected to allow human FcRn to interact with the antibody captured on the sensor chip. The running buffer used comprised 50 mmol/l sodium phosphate, 150 mmol/l NaCl, and 0.05% (w/v) Tween20 (pH 7.0). FcRn was diluted using each buffer. The chip was regenerated using 10 mmol/l glycine-HCl (pH 1.5). Assays were carried out exclusively at 25 degrees C. The association rate constant ka (1/Ms) and dissociation rate constant kd (1/s), both of which are kinetic parameters, were calculated based on the sensorgrams obtained in the assays, and KD (M) of each antibody for human FcRn was determined from these values. Each parameter was calculated using Biacore T100 Evaluation Software (GE Healthcare).

[7] = target: T3, soluble human FcRn (complex of FcRn and …); experiment: Biacore pH 7.0; remark: listed apart in the source
Description: as §3

[8] = target: T3, soluble human FcRn (complex of FcRn and …); experiment: Biacore pH 7.0; remark: listed apart in the source
Description: as §3

T1 sequence (Q9UIW2 other isoform, or with tags, fused parts or gaps limits assumed): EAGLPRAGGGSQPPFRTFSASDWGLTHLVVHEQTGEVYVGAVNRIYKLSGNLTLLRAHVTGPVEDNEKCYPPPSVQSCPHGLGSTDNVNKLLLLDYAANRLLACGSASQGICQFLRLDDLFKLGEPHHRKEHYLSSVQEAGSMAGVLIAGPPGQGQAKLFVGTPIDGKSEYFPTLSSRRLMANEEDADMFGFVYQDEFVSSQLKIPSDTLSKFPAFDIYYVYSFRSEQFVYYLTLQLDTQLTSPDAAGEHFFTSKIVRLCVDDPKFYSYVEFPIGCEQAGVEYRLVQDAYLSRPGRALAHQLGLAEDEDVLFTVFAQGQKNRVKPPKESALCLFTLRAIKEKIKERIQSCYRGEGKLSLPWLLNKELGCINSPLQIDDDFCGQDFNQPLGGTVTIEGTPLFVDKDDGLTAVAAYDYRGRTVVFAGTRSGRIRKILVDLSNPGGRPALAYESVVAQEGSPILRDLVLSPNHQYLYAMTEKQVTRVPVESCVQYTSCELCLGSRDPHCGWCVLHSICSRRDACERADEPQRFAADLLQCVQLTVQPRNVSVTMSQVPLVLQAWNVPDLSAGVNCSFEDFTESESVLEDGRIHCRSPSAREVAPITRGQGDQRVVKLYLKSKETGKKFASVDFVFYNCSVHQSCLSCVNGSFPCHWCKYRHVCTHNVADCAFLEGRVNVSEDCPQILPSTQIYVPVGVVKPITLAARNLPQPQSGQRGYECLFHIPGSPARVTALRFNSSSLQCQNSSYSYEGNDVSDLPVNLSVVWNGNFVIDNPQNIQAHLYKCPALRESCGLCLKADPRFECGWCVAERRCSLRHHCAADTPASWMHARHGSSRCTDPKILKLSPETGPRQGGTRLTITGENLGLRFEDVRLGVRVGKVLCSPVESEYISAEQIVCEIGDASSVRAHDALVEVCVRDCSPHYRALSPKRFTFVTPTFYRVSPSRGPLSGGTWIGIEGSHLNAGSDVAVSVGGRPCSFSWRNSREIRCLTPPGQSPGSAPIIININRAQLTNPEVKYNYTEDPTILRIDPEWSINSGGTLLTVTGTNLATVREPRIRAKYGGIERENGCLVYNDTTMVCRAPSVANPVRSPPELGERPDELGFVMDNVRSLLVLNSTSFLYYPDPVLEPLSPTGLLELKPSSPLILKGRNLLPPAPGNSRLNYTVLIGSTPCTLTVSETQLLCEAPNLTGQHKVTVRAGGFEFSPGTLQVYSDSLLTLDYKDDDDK

B1: PX141-IgG1 (antibody, V domains shown)
VH: QEQLEESGGGLVKPEGSLTLTCKASGFDFSSYYYMCWVRQAPGKGLEWIGCIVTGSYGRSWYASWAKGRFTITRSTSLNTVTLQLNSLTAADTATYFCARDPFVIASSHYQNLWGPGTLVTVSS
VL: ALVMTQTPSPVSAAVGGTVTISCQSSPNIYNNYLSWYQQKPGQPPKLLIYRASNLETGVPSRFSGSGSGTQFTLTISDVQCDDAATYYCAGYKSYDNDDNAFGGGTEVVVKR
notes: chimeric anti-plexin A1 antibody, pH-dependent
Kd [1]: 63 nM
koff [1]: 0.0049 s⁻¹
kon [1]: 79000 M⁻¹ s⁻¹
Kd [2]: 4.2 nM
koff [2]: 0.00064 s⁻¹
kon [2]: 150000 M⁻¹ s⁻¹

B2: CLB8-IgG1 (antibody, V domains shown)
VH: EVQLVESGGKLLKPGGSLKLSCAASGFTFSSFAMSWFRQSPEKRLEWVAEISSGGSYTYYPDTVTGRFTISRDNAKNTLYLEMSSLRSEDTAMYYCARGLWGYYALDYWGQGTSVTVSS
VL: QIVLIQSPAIMSASPGEKVTMTCSASSSVSYMYWYQQKPGSSPRLLIYDTSNLASGVPVRFSGSGSGTSYSLTISRMEAEDAATYYCQQWSGYPYTFGGGTKLEIKR
notes: chimeric anti-IL-6 antibody
Kd (human IL-6 (TORAY) [3]): 0.18 nM
koff (human IL-6 (TORAY) [3]): 0.00066 s⁻¹
kon (human IL-6 (TORAY) [3]): 3.7e+06 M⁻¹ s⁻¹
Kd (human IL-6 (TORAY) [4]): 0.22 nM
koff (human IL-6 (TORAY) [4]): 0.0008 s⁻¹
kon (human IL-6 (TORAY) [4]): 3.6e+06 M⁻¹ s⁻¹

B3: H16/L13-IgG1 (antibody, V domains shown)
VH: EVQLVESGGKLLKPGGSLKLSCAASGFTFSSHAMSWFRQSPEKRLEWVAEISSGGSYTYHPHTVTGRFTISRDNAKNTLYLEMSSLRSEDTAMYYCARGLWGHYALDYWGQGTSVTVSS
VL: QIVLIQSPAIMSASPGEKVTMTCSASSSVSYMYWYQQKPGSSPRLLIYDTSHHASGVPVRFSGSGSGTSYSLTISRMEAEDAATYYCHQWSGHPYTFGGGTKLEIKR
notes: chimeric anti-IL-6 antibody, pH-dependent
Kd (human IL-6 (TORAY) [3]): 16 nM
koff (human IL-6 (TORAY) [3]): 0.0059 s⁻¹
kon (human IL-6 (TORAY) [3]): 370000 M⁻¹ s⁻¹
Kd (human IL-6 (TORAY) [4]): 2.2 nM
koff (human IL-6 (TORAY) [4]): 0.0046 s⁻¹
kon (human IL-6 (TORAY) [4]): 2.1e+06 M⁻¹ s⁻¹

B4: PX268-IgG1 (antibody, V domains shown)
VH: QSLEESGGDLVKPGASLTLTCTASGFSFSSNYWIYWVRQAPGKGLEWIACIYIGSDSAYYASWAKGRFTISKTSSTTVTLQMTSLTAADTATYFCARWDNSGRALKLWGPGTLVTVSS
VL: QMLTQTASPVSAAVGGTVTIKCQSSQSVADNNHLSWYQQKPGQPPKLLIYFASTLASGVSSRFKGSGSGTQFTLTISDVQCDDAATYYCLGNYDCGSADCHAFGGGTEVVVKR
notes: chimeric anti-plexin A1 antibody
Kd [1]: 4.4 nM
koff [1]: 0.00027 s⁻¹
kon [1]: 63000 M⁻¹ s⁻¹
Kd [2]: 5.4 nM
koff [2]: 0.00028 s⁻¹
kon [2]: 52000 M⁻¹ s⁻¹

B5: Fv4-IgG1 (antibody)
heavy: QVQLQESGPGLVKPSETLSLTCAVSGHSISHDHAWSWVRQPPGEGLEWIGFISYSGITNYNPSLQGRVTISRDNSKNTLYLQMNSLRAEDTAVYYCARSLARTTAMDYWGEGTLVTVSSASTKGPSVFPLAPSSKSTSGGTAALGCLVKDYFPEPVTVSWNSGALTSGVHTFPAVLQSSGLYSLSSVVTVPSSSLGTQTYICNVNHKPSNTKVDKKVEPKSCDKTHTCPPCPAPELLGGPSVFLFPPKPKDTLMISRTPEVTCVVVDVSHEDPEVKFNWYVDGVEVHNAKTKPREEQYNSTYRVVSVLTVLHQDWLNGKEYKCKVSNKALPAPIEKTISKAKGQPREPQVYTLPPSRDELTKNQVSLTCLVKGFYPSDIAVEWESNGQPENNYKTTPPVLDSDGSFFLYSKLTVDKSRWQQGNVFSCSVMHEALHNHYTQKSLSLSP
light: DIQMTQSPSSLSASVGDSVTITCQASTDISSHLNWYQQKPGKAPELLIYYGSHLLSGVPSRFSGSGSGTDFTFTISSLEAEDAATYYCGQGNRLPYTFGQGTKVEIERTVAAPSVFIFPPSDEQLKSGTASVVCLLNNFYPREAKVQWKVDNALQSGNSQESVTEQDSKDSTYSLSSTLTLSKADYEKHKVYACEVTHQGLSSPVTKSFNRGEC
notes: VH3-IgG1 and VL3-CK; copies: 2 + 2
Kd [5]: 1990 nM

B6: IgG1-F162 (antibody)
heavy: QVQLQESGPGLVKPSETLSLTCAVSGHSISHDHAWSWVRQPPGEGLEWIGFISYSGITNYNPSLQGRVTISRDNSKNTLYLQMNSLRAEDTAVYYCARSLARTTAMDYWGEGTLVTVSSASTKGPSVFPLAPSSKSTSGGTAALGCLVKDYFPEPVTVSWNSGALTSGVHTFPAVLQSSGLYSLSSVVTVPSSSLGTQTYICNVNHKPSNTKVDKKVEPKSCDKTHTCPPCPAPELLGGPSVFLFPPKPKDTLWISRTPEVTCVVVDVSHEDPEVKFNWYVDGVEVHNAKTKPREEQYNSTYRVVSVLTVLHQDWLNGKEYKCKVSNKALPAPIEKTISKAKGQPREPQVYTLPPSRDELTKNQVSLTCLVKGFYPSDIAVEWESNGQPENNYKTTPPVLDSDGSFFLYSKLTVDKSRWQQGNVFSCSVYHEALHYHYTQKSLSLSP
light: not shown
notes: copies: 2 + 2
Kd [6]: 170 nM

B7: IgG1-F292 (antibody)
heavy: QVQLQESGPGLVKPSETLSLTCAVSGHSISHDHAWSWVRQPPGEGLEWIGFISYSGITNYNPSLQGRVTISRDNSKNTLYLQMNSLRAEDTAVYYCARSLARTTAMDYWGEGTLVTVSSASTKGPSVFPLAPSSKSTSGGTAALGCLVKDYFPEPVTVSWNSGALTSGVHTFPAVLQSSGLYSLSSVVTVPSSSLGTQTYICNVNHKPSNTKVDKKVEPKSCDKTHTCPPCPAPELLGGPKVFLFPPKPKDTLYISRTPEVTCVVVDVSHEDPEVKFNWYVDGVEVHNAKTKPREEQYNSTYRVVSVLTPLHQDWLNGKEYKCKVSNKALPAPIEKTISKAKGQPREPQVYTLPPSRDELTKNQVSLTCLVKGFYPSDIAVEWASNGQPENNYKTTPPVLDSDGSFFLYSKLTVDKSRWQQGNVFSCSVIHEALHYHYTQKSLSLSP
light: not shown
notes: copies: 2 + 2
Kd [7]: 20 nM

B8: IgG1-F376 (antibody)
heavy: QVQLQESGPGLVKPSETLSLTCAVSGHSISHDHAWSWVRQPPGEGLEWIGFISYSGITNYNPSLQGRVTISRDNSKNTLYLQMNSLRAEDTAVYYCARSLARTTAMDYWGEGTLVTVSSASTKGPSVFPLAPSSKSTSGGTAALGCLVKDYFPEPVTVSWNSGALTSGVHTFPAVLQSSGLYSLSSVVTVPSSSLGTQTYICNVNHKPSNTKVDKKVEPKSCDKTHTCPPCPAPELLGGPKVFLFPPKPKDTLYISREPEVTCVVVDVSHEFPEVKFNWYVDGVEVHEAKTKPREEQYNSTYRVVSVLTPLHQDWLNGKEYKCKVSNKALPAPIEKTISKAKGQPREPQVYTLPPSRDELTKNQVSLTCLVKGFYPSDIAVEWESNGQPENNYKTTPPVLDSDGSFFLYSKLTVDKSRWQQGNVFSCSVMHEALHYHYTQKSLSLSP
light: not shown
notes: copies: 2 + 2
Kd [8]: 9.5 nM

B9: IgG1-F163 (antibody)
heavy: QVQLQESGPGLVKPSETLSLTCAVSGHSISHDHAWSWVRQPPGEGLEWIGFISYSGITNYNPSLQGRVTISRDNSKNTLYLQMNSLRAEDTAVYYCARSLARTTAMDYWGEGTLVTVSSASTKGPSVFPLAPSSKSTSGGTAALGCLVKDYFPEPVTVSWNSGALTSGVHTFPAVLQSSGLYSLSSVVTVPSSSLGTQTYICNVNHKPSNTKVDKKVEPKSCDKTHTCPPCPAPELLGGPSVFLFPPKPKDTLWISRTPEVTCVVVDVSHEDPEVKFNWYVDGVEVHNAKTKPREEQYNSTYRVVSVLTVLHQDWLNGKEYKCKVSNKALPAPIEKTISKAKGQPREPQVYTLPPSRDELTKNQVSLTCLVKGFYPSDIAVEWESNGQPENNYKTTPPVLDSDGSFFLYSKLTVDKSRWQQGNVFSCSVFHEALHYHYTQKSLSLSP
light: not shown
notes: copies: 2 + 2
Kd [6]: 350 nM

B10: IgG1-F403 (antibody)
heavy: QVQLQESGPGLVKPSETLSLTCAVSGHSISHDHAWSWVRQPPGEGLEWIGFISYSGITNYNPSLQGRVTISRDNSKNTLYLQMNSLRAEDTAVYYCARSLARTTAMDYWGEGTLVTVSSASTKGPSVFPLAPSSKSTSGGTAALGCLVKDYFPEPVTVSWNSGALTSGVHTFPAVLQSSGLYSLSSVVTVPSSSLGTQTYICNVNHKPSNTKVDKKVEPKSCDKTHTCPPCPAPELLGGPSVFLFPPKPKDTLMISRTVEVTCVVVDVSHEDPEVKFNWYVDGVEVHNAKTKPREEQYNSTYRVVSVLAVLHQDWLNGKEYKCKVSNKALPAPIEKTISKAKGQPREPQVYTLPPSRDELTKNQVSLTCLVKGFYPSDIAVEWESNGQPENNYKTTPPVLDSDGSFFLYSKLTVDKSRWQQGNVFSCSVEHEALHWHYTQKSLSLSP
light: not shown
notes: M428E as printed; may be a misprint of M428L; copies: 2 + 2
Kd [8]: 51 nM

B11: IgG1-F379 (antibody)
heavy: QVQLQESGPGLVKPSETLSLTCAVSGHSISHDHAWSWVRQPPGEGLEWIGFISYSGITNYNPSLQGRVTISRDNSKNTLYLQMNSLRAEDTAVYYCARSLARTTAMDYWGEGTLVTVSSASTKGPSVFPLAPSSKSTSGGTAALGCLVKDYFPEPVTVSWNSGALTSGVHTFPAVLQSSGLYSLSSVVTVPSSSLGTQTYICNVNHKPSNTKVDKKVEPKSCDKTHTCPPCPAPELLGGPKVFLFPPKPKDTLWISREPEVTCVVVDVSHEDPEVKFNWYVDGVEVHNAKTKPREEQYNSTYRVVSVLTPLHADWLNGKEYKCKVSNKALPAPIEKTISKAKGQPREPQVYTLPPSRDELTKNQVSLTCLVKGFYPSDIAVEWESNGQPENNYKTTPPVLDSDGSFFLYSKLTVDKSRWQQGNVFSCSVYHEALHYHYTQKSLSLSP
light: not shown
notes: copies: 2 + 2
Kd [8]: 10 nM

B12: IgG1-F311 (antibody)
heavy: QVQLQESGPGLVKPSETLSLTCAVSGHSISHDHAWSWVRQPPGEGLEWIGFISYSGITNYNPSLQGRVTISRDNSKNTLYLQMNSLRAEDTAVYYCARSLARTTAMDYWGEGTLVTVSSASTKGPSVFPLAPSSKSTSGGTAALGCLVKDYFPEPVTVSWNSGALTSGVHTFPAVLQSSGLYSLSSVVTVPSSSLGTQTYICNVNHKPSNTKVDKKVEPKSCDKTHTCPPCPAPELLGGPKVFLFPPKPKDTLWISRTPEVTCVVVDVSHEDPEVKFNWYVDGVEVHNAKTKPREEQYNSTYRVVSVLTPLHQDWLNGKEYKCKVSNKALPAPIEKTISKAKGQPREPQVYTLPPSRDELTKNQVSLTCLVKGFYPSDIAVEWESNGQPENNYKTTPPVLDSDGSFFLYSKLTVDKSRWQQGNVFSCSVFHEALHYHYTQKSLSLSP
light: not shown
notes: copies: 2 + 2
Kd [7]: 29 nM

B13: IgG1-F308 (antibody)
heavy: QVQLQESGPGLVKPSETLSLTCAVSGHSISHDHAWSWVRQPPGEGLEWIGFISYSGITNYNPSLQGRVTISRDNSKNTLYLQMNSLRAEDTAVYYCARSLARTTAMDYWGEGTLVTVSSASTKGPSVFPLAPSSKSTSGGTAALGCLVKDYFPEPVTVSWNSGALTSGVHTFPAVLQSSGLYSLSSVVTVPSSSLGTQTYICNVNHKPSNTKVDKKVEPKSCDKTHTCPPCPAPELLGGPKVFLFPPKPKDTLWISRTPEVTCVVVDVSHEDPEVKFNWYVDGVEVHNAKTKPREEQYNSTYRVVSVLTPLHQDWLNGKEYKCKVSNKALPAPIEKTISKAKGQPREPQVYTLPPSRDELTKNQVSLTCLVKGFYPSDIAVEWASNGQPENNYKTTPPVLDSDGSFFLYSKLTVDKSRWQQGNVFSCSVYHEALHYHYTQKSLSLSP
light: not shown
notes: copies: 2 + 2
Kd [7]: 18 nM
